Assay results taken from patent US20250218531A1 (ABSCI, published 2025).
Changes are numbered by the printed parent chain. “And” between values parts separate entries of the source, which are not always exact repeats. Identical values can stand only once.

B1: Trastuzumab HCDR3 variant ARWRDYYYYFDY (Fab, V domains shown)
VH: EVQLVESGGGLVQPGGSLRLSCAASGFNIKDTYIHWVRQAPGKGLEWVARIYPTNGYTRYADSVKGRFTISADTSKNTAYLQMNSLRAEDTAVYYCARWRDYYYYFDYWGQGTLVTVSS
VL: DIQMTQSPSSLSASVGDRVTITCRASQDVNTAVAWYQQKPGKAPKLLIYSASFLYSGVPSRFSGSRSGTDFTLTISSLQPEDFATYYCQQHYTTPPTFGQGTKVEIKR
B2: Trastuzumab HCDR3 variant ARWSWPGYEFEF (Fab, V domains shown)
VH: B1 VH with R100S, D101W, Y102P, Y103G, Y105E, D107E, Y108F
VL: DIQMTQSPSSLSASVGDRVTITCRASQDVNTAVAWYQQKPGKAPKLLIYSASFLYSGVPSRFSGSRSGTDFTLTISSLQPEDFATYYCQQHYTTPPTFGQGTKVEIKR
B3: Trastuzumab HCDR3 variant ARYADYQFHFDN (Fab, V domains shown)
VH: B1 VH with W99Y, R100A, Y103Q, Y104F, Y105H, Y108N
VL: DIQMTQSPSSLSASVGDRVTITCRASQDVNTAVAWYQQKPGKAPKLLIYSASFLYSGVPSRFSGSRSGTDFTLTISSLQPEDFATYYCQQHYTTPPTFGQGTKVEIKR
B4: Trastuzumab HCDR3 variant ARYFGGSYAYGR (Fab, V domains shown)
VH: B1 VH with W99Y, R100F, D101G, Y102G, Y103S, Y105A, F106Y, D107G, Y108R
VL: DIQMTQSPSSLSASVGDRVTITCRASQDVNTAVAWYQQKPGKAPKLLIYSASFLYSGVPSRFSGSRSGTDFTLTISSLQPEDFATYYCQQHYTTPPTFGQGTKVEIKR
B5: Trastuzumab HCDR3 variant ARYGGAGYYLDY (Fab, V domains shown)
VH: B1 VH with W99Y, R100G, D101G, Y102A, Y103G, F106L
VL: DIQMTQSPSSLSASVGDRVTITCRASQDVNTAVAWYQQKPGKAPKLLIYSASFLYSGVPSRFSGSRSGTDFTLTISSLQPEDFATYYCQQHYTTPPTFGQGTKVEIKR
B6: Trastuzumab HCDR3 variant ARYGRDYYYFDV (Fab, V domains shown)
VH: B1 VH with W99Y, R100G, D101R, Y102D, Y108V
VL: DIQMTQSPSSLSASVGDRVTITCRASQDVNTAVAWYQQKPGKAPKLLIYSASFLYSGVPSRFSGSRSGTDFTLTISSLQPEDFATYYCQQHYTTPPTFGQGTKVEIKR
B7: Trastuzumab HCDR3 variant ARYGSGYYGLDY (Fab, V domains shown)
VH: B1 VH with W99Y, R100G, D101S, Y102G, Y105G, F106L
VL: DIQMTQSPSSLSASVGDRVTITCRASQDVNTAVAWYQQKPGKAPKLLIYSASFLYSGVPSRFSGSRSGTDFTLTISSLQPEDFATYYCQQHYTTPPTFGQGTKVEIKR
B8: Trastuzumab HCDR3 variant ARYGTYGYAMDY (Fab, V domains shown)
VH: B1 VH with W99Y, R100G, D101T, Y103G, Y105A, F106M
VL: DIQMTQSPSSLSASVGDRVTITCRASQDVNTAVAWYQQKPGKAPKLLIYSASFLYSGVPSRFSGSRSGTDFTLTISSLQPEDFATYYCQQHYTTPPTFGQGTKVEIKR
B9: Trastuzumab HCDR3 variant ARYGVYGYAMDY (Fab, V domains shown)
VH: B1 VH with W99Y, R100G, D101V, Y103G, Y105A, F106M
VL: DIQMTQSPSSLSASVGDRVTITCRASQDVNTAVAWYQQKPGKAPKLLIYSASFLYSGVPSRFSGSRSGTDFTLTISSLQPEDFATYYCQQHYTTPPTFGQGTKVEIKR
B10: Trastuzumab HCDR3 variant ARYGYYGYWFDY (Fab, V domains shown)
VH: B1 VH with W99Y, R100G, D101Y, Y103G, Y105W
VL: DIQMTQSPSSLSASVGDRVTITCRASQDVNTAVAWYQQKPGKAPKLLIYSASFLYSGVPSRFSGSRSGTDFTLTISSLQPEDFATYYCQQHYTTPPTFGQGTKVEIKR
B11: Trastuzumab HCDR3 variant ARYHFSGYFMDA (Fab, V domains shown)
VH: B1 VH with W99Y, R100H, D101F, Y102S, Y103G, Y105F, F106M, Y108A
VL: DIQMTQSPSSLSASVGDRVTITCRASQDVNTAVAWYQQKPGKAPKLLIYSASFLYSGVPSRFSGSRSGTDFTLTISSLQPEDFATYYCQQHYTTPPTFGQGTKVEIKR
B12: Trastuzumab HCDR3 variant ARYHNTGYFWGA (Fab, V domains shown)
VH: B1 VH with W99Y, R100H, D101N, Y102T, Y103G, Y105F, F106W, D107G, Y108A
VL: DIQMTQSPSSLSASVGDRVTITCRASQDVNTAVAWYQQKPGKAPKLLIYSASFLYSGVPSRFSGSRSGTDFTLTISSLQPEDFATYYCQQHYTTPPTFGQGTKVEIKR
B13: Trastuzumab HCDR3 variant ARYHYSGYFMDS (Fab, V domains shown)
VH: B1 VH with W99Y, R100H, D101Y, Y102S, Y103G, Y105F, F106M, Y108S
VL: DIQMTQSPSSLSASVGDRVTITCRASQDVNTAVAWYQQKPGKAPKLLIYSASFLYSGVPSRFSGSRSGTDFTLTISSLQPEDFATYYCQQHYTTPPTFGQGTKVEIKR
B14: Trastuzumab HCDR3 variant ARYLEYTYAWDY (Fab, V domains shown)
VH: B1 VH with W99Y, R100L, D101E, Y103T, Y105A, F106W
VL: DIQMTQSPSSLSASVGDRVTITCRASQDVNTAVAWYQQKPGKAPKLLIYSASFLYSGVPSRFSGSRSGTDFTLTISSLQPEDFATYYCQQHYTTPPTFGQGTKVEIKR
B15: Trastuzumab HCDR3 variant ARYLSYSFAWDY (Fab, V domains shown)
VH: B1 VH with W99Y, R100L, D101S, Y103S, Y104F, Y105A, F106W
VL: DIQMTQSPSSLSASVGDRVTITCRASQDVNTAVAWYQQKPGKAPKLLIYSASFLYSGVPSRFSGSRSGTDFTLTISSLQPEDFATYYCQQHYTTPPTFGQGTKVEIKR
B16: Trastuzumab HCDR3 variant ARYLSYSYAWDN (Fab, V domains shown)
VH: B1 VH with W99Y, R100L, D101S, Y103S, Y105A, F106W, Y108N
VL: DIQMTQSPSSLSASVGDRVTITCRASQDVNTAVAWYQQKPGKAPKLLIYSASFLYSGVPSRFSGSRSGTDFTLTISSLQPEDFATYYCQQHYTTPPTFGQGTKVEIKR
B17: Trastuzumab HCDR3 variant ARYLSYSYAWDY (Fab, V domains shown)
VH: B1 VH with W99Y, R100L, D101S, Y103S, Y105A, F106W
VL: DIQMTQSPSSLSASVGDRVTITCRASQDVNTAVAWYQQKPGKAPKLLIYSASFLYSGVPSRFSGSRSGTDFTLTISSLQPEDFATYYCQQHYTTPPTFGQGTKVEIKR
B18: Trastuzumab HCDR3 variant ARYLSYSYAWNY (Fab, V domains shown)
VH: B1 VH with W99Y, R100L, D101S, Y103S, Y105A, F106W, D107N
VL: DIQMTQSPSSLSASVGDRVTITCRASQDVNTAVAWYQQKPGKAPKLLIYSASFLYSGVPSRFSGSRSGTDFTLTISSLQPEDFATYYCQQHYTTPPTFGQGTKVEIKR
B19: Trastuzumab HCDR3 variant ARYPDYYYAMDY (Fab, V domains shown)
VH: B1 VH with W99Y, R100P, Y105A, F106M
VL: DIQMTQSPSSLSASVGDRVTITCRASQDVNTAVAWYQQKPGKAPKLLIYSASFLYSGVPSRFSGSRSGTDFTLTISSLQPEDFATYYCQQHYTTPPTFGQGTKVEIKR
B20: Trastuzumab HCDR3 variant ARYPEDFYYFDV (Fab, V domains shown)
VH: B1 VH with W99Y, R100P, D101E, Y102D, Y103F, Y108V
VL: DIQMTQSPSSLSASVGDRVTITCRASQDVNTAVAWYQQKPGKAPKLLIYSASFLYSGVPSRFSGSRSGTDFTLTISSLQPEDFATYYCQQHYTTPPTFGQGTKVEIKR
B21: Trastuzumab HCDR3 variant ARYPYGYYAMDY (Fab, V domains shown)
VH: B1 VH with W99Y, R100P, D101Y, Y102G, Y105A, F106M
VL: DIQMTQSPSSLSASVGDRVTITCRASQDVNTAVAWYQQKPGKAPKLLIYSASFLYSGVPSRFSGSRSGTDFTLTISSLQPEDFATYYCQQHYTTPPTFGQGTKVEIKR
B22: Trastuzumab HCDR3 variant ARYQAYDNSYGV (Fab, V domains shown)
VH: B1 VH with W99Y, R100Q, D101A, Y103D, Y104N, Y105S, F106Y, D107G, Y108V
VL: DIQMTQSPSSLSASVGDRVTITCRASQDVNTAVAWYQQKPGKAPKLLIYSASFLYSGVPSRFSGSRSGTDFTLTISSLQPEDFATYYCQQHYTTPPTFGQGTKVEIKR
B23: Trastuzumab HCDR3 variant ARYSYGAFYYSI (Fab, V domains shown)
VH: B1 VH with W99Y, R100S, D101Y, Y102G, Y103A, Y104F, F106Y, D107S, Y108I
VL: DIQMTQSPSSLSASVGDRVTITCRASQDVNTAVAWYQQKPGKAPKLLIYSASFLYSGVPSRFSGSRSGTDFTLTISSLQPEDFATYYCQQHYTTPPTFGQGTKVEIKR
B24: Trastuzumab HCDR3 variant ARYWYGSYVFDY (Fab, V domains shown)
VH: B1 VH with W99Y, R100W, D101Y, Y102G, Y103S, Y105V
VL: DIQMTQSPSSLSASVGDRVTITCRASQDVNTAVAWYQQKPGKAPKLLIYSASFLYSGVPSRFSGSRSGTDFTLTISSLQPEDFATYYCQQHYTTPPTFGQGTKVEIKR
B25: Trastuzumab HCDR3 variant ARYYDDTIYSFY (Fab, V domains shown)
VH: B1 VH with W99Y, R100Y, Y102D, Y103T, Y104I, F106S, D107F
VL: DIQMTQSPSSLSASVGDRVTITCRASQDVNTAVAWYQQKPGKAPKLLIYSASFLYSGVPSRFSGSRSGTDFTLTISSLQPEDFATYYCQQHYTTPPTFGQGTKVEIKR
B26: Trastuzumab HCDR3 variant ARYYGGLYYFDY (Fab, V domains shown)
VH: B1 VH with W99Y, R100Y, D101G, Y102G, Y103L
VL: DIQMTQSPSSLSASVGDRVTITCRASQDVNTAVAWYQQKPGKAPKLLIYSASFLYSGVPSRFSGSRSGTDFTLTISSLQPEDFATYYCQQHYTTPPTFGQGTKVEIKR
B27: Trastuzumab HCDR3 variant ARYYGYYYYMDY (Fab, V domains shown)
VH: B1 VH with W99Y, R100Y, D101G, F106M
VL: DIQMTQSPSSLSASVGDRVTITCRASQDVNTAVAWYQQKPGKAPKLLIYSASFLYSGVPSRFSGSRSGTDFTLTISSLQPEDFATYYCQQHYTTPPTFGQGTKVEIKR
B28: Trastuzumab HCDR3 variant ARYYVGYYAMDY (Fab, V domains shown)
VH: B1 VH with W99Y, R100Y, D101V, Y102G, Y105A, F106M
VL: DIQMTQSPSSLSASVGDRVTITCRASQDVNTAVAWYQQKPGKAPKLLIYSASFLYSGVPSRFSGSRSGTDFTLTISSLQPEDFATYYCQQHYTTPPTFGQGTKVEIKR
B29: Trastuzumab HCDR3 variant ARYYYSGYYMSV (Fab, V domains shown)
VH: B1 VH with W99Y, R100Y, D101Y, Y102S, Y103G, F106M, D107S, Y108V
VL: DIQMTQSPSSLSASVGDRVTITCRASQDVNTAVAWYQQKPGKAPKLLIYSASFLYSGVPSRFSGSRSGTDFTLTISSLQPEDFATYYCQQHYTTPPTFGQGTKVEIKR
B30: Trastuzumab HCDR3 variant ASGDLTAGSSQT (Fab, V domains shown)
VH: EVQLVESGGGLVQPGGSLRLSCAASGFNIKDTYIHWVRQAPGKGLEWVARIYPTNGYTRYADSVKGRFTISADTSKNTAYLQMNSLRAEDTAVYYCASGDLTAGSSQTWGQGTLVTVSS
VL: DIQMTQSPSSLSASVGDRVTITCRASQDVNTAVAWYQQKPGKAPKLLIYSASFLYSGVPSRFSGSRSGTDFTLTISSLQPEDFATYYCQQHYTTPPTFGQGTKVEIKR
B31: Trastuzumab HCDR3 variant ASYMGIVGYYPG (Fab, V domains shown)
VH: B30 VH with G99Y, D100M, L101G, T102I, A103V, S105Y, S106Y, Q107P, T108G
VL: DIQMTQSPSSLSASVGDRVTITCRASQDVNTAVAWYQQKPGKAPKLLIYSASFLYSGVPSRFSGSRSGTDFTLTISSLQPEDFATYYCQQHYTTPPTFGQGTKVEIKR
B32: Trastuzumab HCDR3 variant ASYYDYYYAFGT (Fab, V domains shown)
VH: B1 VH with R98S, W99Y, R100Y, Y105A, D107G, Y108T
VL: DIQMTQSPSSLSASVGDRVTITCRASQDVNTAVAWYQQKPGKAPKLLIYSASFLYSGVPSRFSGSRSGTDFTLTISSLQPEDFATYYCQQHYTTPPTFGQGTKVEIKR
B33: Trastuzumab HCDR3 variant ATGPYTVYSYPY (Fab, V domains shown)
VH: B30 VH with S98T, D100P, L101Y, A103V, G104Y, S106Y, Q107P, T108Y
VL: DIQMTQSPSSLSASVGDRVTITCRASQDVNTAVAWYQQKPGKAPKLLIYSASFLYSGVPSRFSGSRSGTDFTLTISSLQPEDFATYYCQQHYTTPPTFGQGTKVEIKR
B34: Trastuzumab HCDR3 variant ATNAFGLWSYGF (Fab, V domains shown)
VH: B30 VH with S98T, G99N, D100A, L101F, T102G, A103L, G104W, S106Y, Q107G, T108F
VL: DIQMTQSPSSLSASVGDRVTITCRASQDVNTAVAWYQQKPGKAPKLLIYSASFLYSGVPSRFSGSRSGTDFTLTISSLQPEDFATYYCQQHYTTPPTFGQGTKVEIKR
B35: Trastuzumab HCDR3 variant SIYGTDYYWFAD (Fab, V domains shown)
VH: B1 VH with A97S, R98I, W99Y, R100G, D101T, Y102D, Y105W, D107A, Y108D
VL: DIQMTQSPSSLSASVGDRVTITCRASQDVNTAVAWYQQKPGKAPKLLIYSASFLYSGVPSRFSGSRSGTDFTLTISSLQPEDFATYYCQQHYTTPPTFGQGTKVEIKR
B36: Trastuzumab HCDR3 variant SRWYGDYFAMDY (Fab, V domains shown)
VH: B1 VH with A97S, R100Y, D101G, Y102D, Y104F, Y105A, F106M
VL: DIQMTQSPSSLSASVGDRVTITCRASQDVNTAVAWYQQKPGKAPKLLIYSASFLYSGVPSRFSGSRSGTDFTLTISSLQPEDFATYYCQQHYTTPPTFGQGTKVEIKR
B37: Trastuzumab HCDR3 variant TLNGPLYWMWTL (Fab, V domains shown)
VH: EVQLVESGGGLVQPGGSLRLSCAASGFNIKDTYIHWVRQAPGKGLEWVARIYPTNGYTRYADSVKGRFTISADTSKNTAYLQMNSLRAEDTAVYYCTLNGPLYWMWTLWGQGTLVTVSS
VL: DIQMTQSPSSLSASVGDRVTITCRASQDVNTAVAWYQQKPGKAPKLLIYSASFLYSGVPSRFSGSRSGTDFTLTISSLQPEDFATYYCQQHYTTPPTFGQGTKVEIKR
B38: Trastuzumab HCDR3 variant TRNGPLYWHWDL (Fab, V domains shown)
VH: B37 VH with L98R, M105H, T107D
VL: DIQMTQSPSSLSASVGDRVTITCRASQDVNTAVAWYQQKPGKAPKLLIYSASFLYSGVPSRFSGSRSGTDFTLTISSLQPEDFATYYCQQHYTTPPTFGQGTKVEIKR
B39: Trastuzumab HCDR3 variant TRTRSGAYFFDY (Fab, V domains shown)
VH: B1 VH with A97T, W99T, D101S, Y102G, Y103A, Y105F
VL: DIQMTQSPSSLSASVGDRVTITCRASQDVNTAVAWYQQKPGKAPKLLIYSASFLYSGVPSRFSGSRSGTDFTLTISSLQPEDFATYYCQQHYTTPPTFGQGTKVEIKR
B40: Trastuzumab HCDR3 variant TRTTLGFYAMDY (Fab, V domains shown)
VH: B1 VH with A97T, W99T, R100T, D101L, Y102G, Y103F, Y105A, F106M
VL: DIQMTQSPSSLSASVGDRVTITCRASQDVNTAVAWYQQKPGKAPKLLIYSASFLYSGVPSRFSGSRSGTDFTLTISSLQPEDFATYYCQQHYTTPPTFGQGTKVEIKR
B41: Trastuzumab HCDR3 variant TRYFYDFPYMDY (Fab, V domains shown)
VH: B1 VH with A97T, W99Y, R100F, D101Y, Y102D, Y103F, Y104P, F106M
VL: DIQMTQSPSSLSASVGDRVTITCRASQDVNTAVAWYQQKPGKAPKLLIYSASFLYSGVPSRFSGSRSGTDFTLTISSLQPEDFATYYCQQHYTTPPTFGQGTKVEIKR
B42: Trastuzumab HCDR3 variant TRYYDGYYAMDY (Fab, V domains shown)
VH: B1 VH with A97T, W99Y, R100Y, Y102G, Y105A, F106M
VL: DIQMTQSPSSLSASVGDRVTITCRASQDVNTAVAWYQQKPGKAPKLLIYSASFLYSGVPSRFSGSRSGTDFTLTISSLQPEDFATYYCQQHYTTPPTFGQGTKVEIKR
B43: Trastuzumab HCDR3 variant VKHGIDYYWYGD (Fab, V domains shown)
VH: B1 VH with A97V, R98K, W99H, R100G, D101I, Y102D, Y105W, F106Y, D107G, Y108D
VL: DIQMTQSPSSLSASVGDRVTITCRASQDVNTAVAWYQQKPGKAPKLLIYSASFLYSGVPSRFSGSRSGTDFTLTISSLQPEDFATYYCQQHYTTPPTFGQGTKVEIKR
B44: Trastuzumab HCDR3 variant VRYYRGYYYFDY (Fab, V domains shown)
VH: B1 VH with A97V, W99Y, R100Y, D101R, Y102G
VL: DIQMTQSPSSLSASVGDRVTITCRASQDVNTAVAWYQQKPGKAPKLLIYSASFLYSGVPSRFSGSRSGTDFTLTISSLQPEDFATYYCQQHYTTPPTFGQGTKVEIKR
B45: Trastuzumab HCDR3 variant … (Fab, V domains shown)
VH: B1 VH with W99Y, R100Y, Y103G, Y105T
VL: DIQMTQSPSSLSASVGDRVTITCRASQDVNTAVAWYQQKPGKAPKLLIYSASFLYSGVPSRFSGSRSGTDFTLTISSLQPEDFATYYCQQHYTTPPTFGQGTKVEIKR
B46: Trastuzumab HCDR3 variant ARYGYGYYYYFDY (Fab, V domains shown)
VH: EVQLVESGGGLVQPGGSLRLSCAASGFNIKDTYIHWVRQAPGKGLEWVARIYPTNGYTRYADSVKGRFTISADTSKNTAYLQMNSLRAEDTAVYYCARYGYGYYYYFDYWGQGTLVTVSS
VL: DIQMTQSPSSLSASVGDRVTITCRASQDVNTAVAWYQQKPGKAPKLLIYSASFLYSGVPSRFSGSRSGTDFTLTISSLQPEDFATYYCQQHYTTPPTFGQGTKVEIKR
B47: Trastuzumab HCDR3 variant AGSSASGWYHYTT (Fab, V domains shown)
VH: EVQLVESGGGLVQPGGSLRLSCAASGFNIKDTYIHWVRQAPGKGLEWVARIYPTNGYTRYADSVKGRFTISADTSKNTAYLQMNSLRAEDTAVYYCAGSSASGWYHYTTWGQGTLVTVSS
VL: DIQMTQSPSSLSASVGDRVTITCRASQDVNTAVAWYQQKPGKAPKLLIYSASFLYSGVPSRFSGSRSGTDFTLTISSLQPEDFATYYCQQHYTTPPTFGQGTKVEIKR
B48: Trastuzumab HCDR3 variant AGSVAEGWYHYRD (Fab, V domains shown)
VH: B47 VH with S100V, S102E, T108R, T109D
VL: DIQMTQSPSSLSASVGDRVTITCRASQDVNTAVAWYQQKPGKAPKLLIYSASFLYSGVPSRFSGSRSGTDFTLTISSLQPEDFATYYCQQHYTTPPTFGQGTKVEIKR
B49: Trastuzumab HCDR3 variant AGYEGYGLYPFAY (Fab, V domains shown)
VH: B46 VH with R98G, G100E, Y101G, G102Y, Y103G, Y104L, Y106P, D108A
VL: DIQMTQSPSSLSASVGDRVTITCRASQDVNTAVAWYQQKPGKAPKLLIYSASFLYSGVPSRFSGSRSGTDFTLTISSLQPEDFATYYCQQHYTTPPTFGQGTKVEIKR
B50: Trastuzumab HCDR3 variant AIWSMYDVGYYPF (Fab, V domains shown)
VH: B47 VH with G98I, S99W, A101M, S102Y, G103D, W104V, Y105G, H106Y, T108P, T109F
VL: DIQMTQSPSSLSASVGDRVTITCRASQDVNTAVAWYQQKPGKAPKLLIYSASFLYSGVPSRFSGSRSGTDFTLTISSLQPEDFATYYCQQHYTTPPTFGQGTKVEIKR

Each binder was assayed against human epidermal growth factor receptor 2 (HER2) extracellular domain (human, UniProt P04626 23-629) (assay: SPR).

Binder	Kd	log(KD (M))
B1	33.8 nM	-7.47 log(M)
B2	177 nM	-6.75 log(M)
B3	39.6 nM	-7.4 log(M)
B4	28 nM	-7.55 log(M)
B5	32.4 nM	-7.49 log(M)
B6	106 nM	-6.97 log(M)
B7	51.5 nM	-7.29 log(M)
B8	65.5 nM	-7.18 log(M)
B9	53.3 nM	-7.27 log(M)
B10	59.4 nM	-7.23 log(M)
B11	103 nM	-6.99 log(M)
B12	61 nM	-7.22 log(M)
B13	113 nM	-6.95 log(M)
B14	218 nM	-6.66 log(M)
B15	59.9 nM	-7.22 log(M)
B16	42.6 nM	-7.37 log(M)
B17	54.8 nM	-7.26 log(M)
B18	28.9 nM	-7.54 log(M)
B19	117 nM	-6.93 log(M)
B20	40.2 nM	-7.4 log(M)
B21	78.1 nM	-7.11 log(M)
B22	102 nM	-6.99 log(M)
B23	70.4 nM	-7.15 log(M)
B24	78.3 nM	-7.11 log(M)
B25	29.9 nM	-7.53 log(M)

Binder	Kd	log(KD (M))
B26	34.4 nM	-7.46 log(M)
B27	74.3 nM	-7.13 log(M)
B28	71.6 nM	-7.15 log(M)
B29	85.2 nM	-7.07 log(M)
B30	219 nM	-6.66 log(M)
B31	62.3 nM	-7.21 log(M)
B32	36.1 nM	-7.44 log(M)
B33	120 nM	-6.92 log(M)
B34	52.8 nM	-7.28 log(M)
B35	50.4 nM	-7.3 log(M)
B36	51.8 nM	-7.29 log(M)
B37	116 nM	-6.94 log(M)
B38	234 nM	-6.63 log(M)
B39	43.4 nM	-7.36 log(M)
B40	32.3 nM	-7.49 log(M)
B41	56.8 nM	-7.25 log(M)
B42	33.1 nM	-7.48 log(M)
B43	60.1 nM	-7.22 log(M)
B44	96.4 nM	-7.02 log(M)
B45	61.2 nM	-7.21 log(M)
B46	39.1 nM	-7.41 log(M)
B47	42.3 nM and 42.2 nM	-7.37 log(M)
B48	60.3 nM	-7.22 log(M)
B49	128 nM	-6.89 log(M)
B50	71.8 nM	-7.14 log(M)
